Values quoted from earlier work in patent US6645518B2, “Uses for medical devices having a lubricious, nitric oxide-releasing coating” (priority 1998, dated 2003).

Tested on: clinical restenosis
Settings: after balloon angioplasty, systemic administration, six month follow-up

B1: c7E3: potent anti-platelet agent, GPIIb/IIIa antibody, FDA-approved for use after balloon angioplasty (antibody, chains of the INN, looked up, V domains shown)
VH: EVQLQQSGTVLARPGASVKMSCEASGYTFTNYWMHWVKQRPGQGLEWIGAIYPGNSDTSYIQKFKGKAKLTAVTSTTSVYMELSSLTNEDSAVYYCTLYDGYYVFAYWGQGTLVTVSA
VL: EIVLTQSPVTLSVTPGDSVSLSCRASRDISNNLHWFQQTSHESPRLLIKYASQSMSGIPSRFSGSGSGTDFTLSINSVETEDFGMYFCQQTNSWPYTFGGGTKLEIK
- reduction of clinical restenosis: 20-30%
